Test [1] addresses T1, Bacillus anthracis protective antigen (PA), 83 kDa polypeptide (Bacillus anthracis, UniProt P13423 30-764).
Test [2] concerns the target T1, Bacillus anthracis protective antigen …. This is another data set of the same source.
Test [3] has the same target. The source holds these as a separate data set.

Several values for one entry are separate records, joined by “and”; a condition that tells them apart may be missing. Identical values can stand only once.

T1 sequence (P13423 30-764 limits assumed): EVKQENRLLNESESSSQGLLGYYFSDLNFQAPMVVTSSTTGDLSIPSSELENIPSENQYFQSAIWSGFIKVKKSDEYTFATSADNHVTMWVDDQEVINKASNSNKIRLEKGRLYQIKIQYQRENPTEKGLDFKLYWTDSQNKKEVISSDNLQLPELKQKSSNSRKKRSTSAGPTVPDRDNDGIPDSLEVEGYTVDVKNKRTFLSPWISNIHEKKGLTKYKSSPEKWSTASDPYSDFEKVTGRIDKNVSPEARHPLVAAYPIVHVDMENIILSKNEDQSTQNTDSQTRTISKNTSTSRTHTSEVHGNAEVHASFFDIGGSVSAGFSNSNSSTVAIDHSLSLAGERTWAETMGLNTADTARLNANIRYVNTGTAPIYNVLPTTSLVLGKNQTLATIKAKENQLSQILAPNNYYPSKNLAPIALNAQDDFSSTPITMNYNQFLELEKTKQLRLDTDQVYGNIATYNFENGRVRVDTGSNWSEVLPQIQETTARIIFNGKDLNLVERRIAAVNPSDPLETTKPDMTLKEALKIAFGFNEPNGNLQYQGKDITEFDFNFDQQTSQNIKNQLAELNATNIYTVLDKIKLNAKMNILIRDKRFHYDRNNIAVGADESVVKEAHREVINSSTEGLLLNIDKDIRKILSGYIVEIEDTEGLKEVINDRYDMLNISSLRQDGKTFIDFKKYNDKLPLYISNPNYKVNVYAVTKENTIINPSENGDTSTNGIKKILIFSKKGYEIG

B1: A2E scFv (scFv)
scFv: DIQMTQTTSSLSASLGDRVTISCRASQDIRNYLNWYQQKPDGTVKLLIYYTSRLQPGVPSRFSGSGSGTDYSLTISNQEQEDIGTYFCQQGNTLPWTGFFFTKLEIKRGGGGSGGGGSGGGGSGGGGSEVQLQQSGPELVKPGASVKISCKIDSGYAFSSSWMNWVKQRFGQGLEWIGRIYPGDGDTNYNGKFKGKATLTADKSSSTAYMQLSSLTSVDSAVYFCARSGLLRYAMDYWGQGTSVTVSS
Usually Kd stands for a measure of binding affinity in units of concentration. The low end stands for higher affinity, the high end for lower affinity. One may read the koff as a measure of how fast the partners let go of each other. The low end stands for slow dissociation, the high end for fast dissociation. As a reminder, the kon is the rate constant with which the complex forms. A lower kon goes with slow association. The EC50 (read off the curve) is the midpoint of the concentration-response curve. A higher EC50 (read off the curve) goes with a less potent agent. Consider B1, for which, in test [1], the “fold higher affinity than the 14B7 scFv” value was 3 fold and the “fold lower equilibrium dissociation constant than 14B7” value stood at 3 fold. Further, in test [2], the Kd stood at 4 nM, the koff was found to be 0.001 s⁻¹ and the kon was found to be 300000 M⁻¹ s⁻¹. For the same molecule, in test [3], the “EC50 (read off the curve)” value was ~0.02 µg/mL and ~0.05 µg/mL.

The record behind these values is US7446182 (University of Texas, dated 2008).
